Patent publication US20160264662A1 (US Dept. of Health and Human Services, published 2016)

Target: T1, human TEM8 (hTEM8) expressed on CHO or 293 cells (human, UniProt Q9H6X2 33-564)
T1 construct: also called CHO TEM8
Assay: cell-based ELISA-type titration of m825-MMAE on CHO cells overexpressing TEM8, with TEM8-negative CHO cells as control; absorbance at 450 nm against Log (ng/well)

T1 sequence (Q9H6X2 33-564 limits assumed): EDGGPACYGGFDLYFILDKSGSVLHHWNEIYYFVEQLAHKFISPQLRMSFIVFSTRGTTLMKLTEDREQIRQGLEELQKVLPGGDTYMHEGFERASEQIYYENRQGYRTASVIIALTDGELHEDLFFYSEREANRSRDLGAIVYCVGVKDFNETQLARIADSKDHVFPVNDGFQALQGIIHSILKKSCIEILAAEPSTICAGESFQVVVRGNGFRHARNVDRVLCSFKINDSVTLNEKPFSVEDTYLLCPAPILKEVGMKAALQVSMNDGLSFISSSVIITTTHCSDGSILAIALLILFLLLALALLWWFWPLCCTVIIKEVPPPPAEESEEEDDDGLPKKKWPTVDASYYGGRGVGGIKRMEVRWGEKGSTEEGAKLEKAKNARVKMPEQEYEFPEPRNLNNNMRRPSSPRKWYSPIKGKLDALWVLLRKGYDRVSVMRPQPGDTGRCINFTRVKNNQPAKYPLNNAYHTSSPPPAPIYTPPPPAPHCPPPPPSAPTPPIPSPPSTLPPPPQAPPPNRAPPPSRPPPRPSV

B1: m825-MMAE conjugate (m825 antibody in human IgG1 format conjugated to MMAE) (other)
VH: QVQLVQSGAEVKKPGTSVKVSCKVPGYTFSSYAISWVRQAPGQGLEWMGGIIPIFGTTNYAQKFQGRVTITGEESTSTVYMELSSLRSEDTAVYYCARDTDYMFDYWGQGTLVTVSS
VL: SSELTQDPVVSVALGETVSITCQGDNLRDFYASWYQQKPGQAPLLVMYGKNRRPSGIPDRFSGSTSGNTLSLTITGAQAEDEADYYCSSRDNSKHVVFGGGTKVTVL
modifications: MMAE with stretcher unit, Val-Cit peptide cleavage site and spacer, attached to thiol groups formed by partial reduction of inter-chain disulfide bonds (positions not stated)
notes: also called anti-TEM8-MMAE
EC50 (read off the curve): ~2 ng/well
